Data reported in patent publication US20030082682A1 (published 2003).

B1: PPARa (receptor, UniProt Q07869 167-468, looked up)
chain: SHNAIRFGRMPRSEKAKLKAEILTCEHDIEDSETADLKSLAKRIYEAYLKNFNMNKVKARVILSGKASNNPPFVIHDMETLCMAEKTLVAKLVANGIQNKEAEVRIFHCCQCTSVETVTELTEFAKAIPGFANLDLNDQVTLLKYGVYEAIFAMLSSVMNKDGMLVAYGNGFITREFLKSLRKPFCDIMEPKFDFAMKFNALELDDSDISLFVAAIICCGDRPGLLNVGHIEKMQEGIVHVLRLHLQSNHPDDIFLFPKLLQKMADLRQLVTEHAQLVQIIKKTESDAALHPLLQEIYRDMY
notes: Member of the panel of nuclear hormone receptors in the directed two-hybrid analysis; the construct is not described
B2: PPARd (receptor, UniProt Q03181 139-441, looked up)
chain: SHNAIRFGRMPEAEKRKLVAGLTANEGSQYNPQVADLKAFSKHIYNAYLKNFNMTKKKARSILTGKASHTAPFVIHDIETLWQAEKGLVWKQLVNGLPPYKEISVHVFYRCQCTTVETVRELTEFAKSIPSFSSLFLNDQVTLLKYGVHEAIFAMLASIVNKDGLLVANGSGFVTREFLRSLRKPFSDIIEPKFEFAVKFNALELDDSDLALFIAAIILCGDRPGLMNVPRVEAIQDTILRALEFHLQANHPDAQYLFPKLLQKMADLRQLVTEHAQMMQRIKKTETETSLHPLLQEIYKDMY
notes: as for B1
B3: HNF4g (receptor, UniProt Q14541 99-408, looked up)
chain: SNIPSINTLAQAEVRSRQISVSSPGSSTDINVKKIASIGDVCESMKQQLLVLVEWAKYIPAFCELPLDDQVALLRAHAGEHLLLGATKRSMMYKDILLLGNNYVIHRNSCEVEISRVANRVLDELVRPFQEIQIDDNEYACLKAIVFFDPDAKGLSDPVKIKNMRFQVQIGLEDYINDRQYDSRGRFGELLLLLPTLQSITWQMIEQIQFVKLFGMVKIDNLLQEMLLGGASNDGSHLHHPMHPHLSQDPLTGQTILLGPMSTLVHADQISTPETPLPSPPQGSGQEQYKIAANQASVISHQHLSKQKQL
notes: as for B1
B4: ERb (receptor, UniProt Q92731 248-530, looked up)
chain: SGGHAPRVRELLLDALSPEQLVLTLLEAEPPHVLISRPSAPFTEASMMMSLTKLADKELVHMISWAKKIPGFVELSLFDQVRLLESCWMEVLMMGLMWRSIDHPGKLIFAPDLVLDRDEGKCVEGILEIFDMLLATTSRFRELKLQHKEYLCVKAMILLNSSMYPLVTATQDADSSRKLAHLLNAVTDALVWVIAKSGISSQQQSMRLANLLMLLSHVRHASNKGMEHLLNMKCKNVVPVYDLLLEMLNAHVLRGCKSSITGSECSPAEDSKSKEGSQNPQSQ
notes: as for B1

Target: T1, RXR interacting protein, RB204 (human, UniProt O75064 240-1496, limits assumed)
T1 construct: Prey clone from a two-hybrid cDNA library (human bone and cartilage cells) in a vector derived from pJG4-5
T1 sequence: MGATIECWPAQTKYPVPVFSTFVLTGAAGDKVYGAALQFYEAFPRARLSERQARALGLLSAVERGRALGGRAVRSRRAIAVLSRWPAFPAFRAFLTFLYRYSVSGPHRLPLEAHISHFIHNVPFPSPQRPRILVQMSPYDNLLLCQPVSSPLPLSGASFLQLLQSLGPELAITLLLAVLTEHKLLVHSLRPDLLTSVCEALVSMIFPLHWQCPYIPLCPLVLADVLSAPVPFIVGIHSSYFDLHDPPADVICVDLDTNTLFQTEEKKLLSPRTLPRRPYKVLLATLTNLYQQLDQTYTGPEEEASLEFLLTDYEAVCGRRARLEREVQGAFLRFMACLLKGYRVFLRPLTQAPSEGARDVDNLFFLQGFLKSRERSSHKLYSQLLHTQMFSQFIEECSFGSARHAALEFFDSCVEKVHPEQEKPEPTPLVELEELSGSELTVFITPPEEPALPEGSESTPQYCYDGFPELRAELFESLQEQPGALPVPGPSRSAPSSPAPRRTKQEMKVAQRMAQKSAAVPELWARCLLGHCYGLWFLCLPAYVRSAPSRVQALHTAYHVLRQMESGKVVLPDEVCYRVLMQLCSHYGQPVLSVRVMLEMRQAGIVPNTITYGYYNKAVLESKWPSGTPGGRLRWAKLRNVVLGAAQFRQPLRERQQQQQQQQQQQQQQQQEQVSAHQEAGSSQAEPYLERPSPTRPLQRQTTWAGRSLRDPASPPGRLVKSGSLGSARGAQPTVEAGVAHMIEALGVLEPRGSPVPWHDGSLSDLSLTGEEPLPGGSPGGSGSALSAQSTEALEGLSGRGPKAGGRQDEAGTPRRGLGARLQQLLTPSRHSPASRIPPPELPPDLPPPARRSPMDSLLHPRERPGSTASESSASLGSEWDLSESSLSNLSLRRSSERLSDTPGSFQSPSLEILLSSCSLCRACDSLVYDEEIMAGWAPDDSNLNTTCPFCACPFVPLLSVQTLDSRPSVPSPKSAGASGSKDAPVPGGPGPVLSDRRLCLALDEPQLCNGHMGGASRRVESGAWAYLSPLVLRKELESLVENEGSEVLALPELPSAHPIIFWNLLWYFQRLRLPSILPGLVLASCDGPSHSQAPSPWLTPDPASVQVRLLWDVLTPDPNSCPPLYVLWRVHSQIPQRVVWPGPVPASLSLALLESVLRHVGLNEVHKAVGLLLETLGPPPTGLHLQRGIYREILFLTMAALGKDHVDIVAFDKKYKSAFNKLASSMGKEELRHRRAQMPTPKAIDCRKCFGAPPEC
Assay: two-hybrid, directed analysis against a panel of nuclear hormone receptors
Protocol: Screening was performed as per standard protocols (Golemis et al., Current protocols in molecular biology, 20.0.1,1999). […] RB204 interacts weakly with ERa in the presence of estradiol. Sequence analysis identified an LXXLL nuclear hormone interaction motif within the RB204 open reading frame.

Binding result, no binding:
B1
B2
B3
B4
